Measurements: patent US20110189154

How the values were obtained:
[1] = target: 6His-Prx2 (human peroxyredoxin Prx2), superoxidized in the cysteine sulfinic acid form (UniProt P32119)
[2] = target: 6His-Prx1 (human peroxyredoxin Prx1), superoxidized in the cysteine sulfinic acid form (UniProt Q06830)
[3] = target: T1, Tsa1 (S. cerevisiae 2-Cys peroxyredoxin) (UniProt P34760)
T1 sequence: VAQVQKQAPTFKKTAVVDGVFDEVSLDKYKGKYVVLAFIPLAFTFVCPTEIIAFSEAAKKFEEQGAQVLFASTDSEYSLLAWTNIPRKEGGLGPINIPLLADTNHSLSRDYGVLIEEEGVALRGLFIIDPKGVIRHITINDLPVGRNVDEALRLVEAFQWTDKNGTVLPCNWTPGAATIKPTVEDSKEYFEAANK

Sequence of hSrx1 (human sulfiredoxin) (chain, as listed by the source): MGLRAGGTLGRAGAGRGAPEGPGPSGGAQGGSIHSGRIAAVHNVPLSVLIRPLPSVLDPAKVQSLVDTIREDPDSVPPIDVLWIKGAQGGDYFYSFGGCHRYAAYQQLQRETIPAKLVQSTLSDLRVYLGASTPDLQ
Sequence of 6His-Prx1 (human peroxyredoxin Prx1), superoxidized in the cysteine sulfinic acid form (Q06830 whole entry): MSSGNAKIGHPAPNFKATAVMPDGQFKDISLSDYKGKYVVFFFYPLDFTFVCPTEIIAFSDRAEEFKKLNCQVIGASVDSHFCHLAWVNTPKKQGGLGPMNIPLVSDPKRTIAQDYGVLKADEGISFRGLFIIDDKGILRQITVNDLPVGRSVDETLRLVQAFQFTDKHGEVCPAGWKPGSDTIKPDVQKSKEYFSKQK
Sequence of 6His-Prx2 (human peroxyredoxin Prx2), superoxidized in the cysteine sulfinic acid form (P32119 whole entry): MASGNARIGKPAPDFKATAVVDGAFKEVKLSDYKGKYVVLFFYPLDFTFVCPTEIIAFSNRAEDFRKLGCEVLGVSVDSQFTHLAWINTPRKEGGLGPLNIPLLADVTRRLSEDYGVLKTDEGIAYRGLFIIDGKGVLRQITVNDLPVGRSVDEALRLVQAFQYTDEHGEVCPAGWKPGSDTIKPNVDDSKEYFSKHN

hSrx1 (human sulfiredoxin)
reduction of superoxidized 6His-Prx2 in vitro [1]: shows the ability of hSrx1, expressed from Baculovirus in High Five cells, to reduce the human peroxyredoxins 6His-Prx1 and 6His-Prx2 superoxidized in the cysteine sulfinic acid form
reduction of superoxidized 6His-Prx1 in vitro [2]: shows the ability of hSrx1, expressed from Baculovirus in High Five cells, to reduce the human peroxyredoxins 6His-Prx1 and 6His-Prx2 superoxidized in the cysteine sulfinic acid form

HA-tagged Srx1^C84S (S. cerevisiae Srx1 with Cys84 changed to serine)
reduction of the Cys-SO2H form of Tsa1 [3]: completely eliminates the formation of the disulfide bridge between Srx1 and Tsa1 and the reduction of the Cys-SO2H form of Tsa1
